Experimental data: patent US20230076063

Experiments:
[1] = system: MamB DNA methyltransferase (Mycobacterium tuberculosis); experiment: cell_activity; conditions: SMRT sequencing kinetics
[2] = system: MamA DNA methyltransferase (Mycobacterium tuberculosis); experiment: cell_activity; conditions: SMRT sequencing kinetics; mostly fully methylated reads

Substance | activity (mean SMALR native score) [1] | activity (mean SMALR native score) [2]
MamB target motif sites | 2.19 | –
CTGGAG (double strand) [MamA target motif sites] | – | 2.14
